Measured values: patent US9724388B2, “FGF-18 compound dosing regimen” (MERCK PATENT GMBH, priority 2014, dated 2017)
Where two headings read alike, the source gives them in different places.

Experiments:
[1] = tested on: medial meniscal tear in the right knee joint; assay type: in vivo, rat; details: for overall morphology: three injections
Procedure: After the sacrifice, the right knee was removed and decalcified in 5% formic acid for 4-6 d before cutting in half in the frontal plane and embedding in paraffin wax. Three sections were cut in 200 μm steps, stained with toluidine blue, and analyzed using ImagePro PIus™ software (Media Cybernetics). In scoring the three sections of the joint, the worst-case scenario for the two halves on each slide was determined for the cartilage lesion as the cartilage degeneration width (μm). This reflects the areas of tibial cartilage lesion in which both chondrocyte and proteoglycan loss extend ≧50% of the cartilage thickness. The measurement was taken over the area of greatest lesion severity in each of the three zones across the tibial surface.
A treatment group Mean±SE for each score and measurement was determined.
Data was analyzed using a one-way analysis of variance (1-way ANOVA) or Kruskal-Wallis test (non-parametric), along with an appropriate multiple comparison post-test. Right knee caliper measurements were compared to left using a Student's t-test. Unless indicated, Bolder BioPATH, Inc. performs statistical analysis on raw (untransformed) data only. […] Significance for all tests was set at p≦0.05. Comparisons were made between each group and the vehicle control group, as well as between pairs.
Male Lewis rats underwent surgery (under anesthesia with isoflurane) to induce a medial meniscal tear in the right knee joint. Animals were dosed IA with vehicle or FGF-18 on one of two different regimens (see table below), then terminated on day 105. Knees had caliper measurements taken at baseline and days 21, 42, 56, 84, and 105. Serum was evaluated for α2macroglobulin levels at baseline and on days 21, and 105, as well as one week after the final dose (day 42 or 84). Right knees were collected for histopathology evaluation.

[2] = tested on: full-thickness defect in the articular cartilage of the trochlear groove; assay type: in vivo, rabbit; details: for ICRS gross cartilage score: mean +/- SE
Excerpt: 60 adult male, naïve, New Zealand White rabbits were used for this study. Animals were approximately 3-4 months of age. Rabbits underwent for creation of the cartilage defect in the right knee. A 2 mm by 6 mm full-thickness defect was made in the articular cartilage of the trochlear groove. The microfracture was created using 18 gauge needles; two 3 mm deep microfractures were made through the subchondral bone at the base of the defect, one proximally and one distally. Each microfracture hole was approximately 1.5 mm in diameter and the holes separated by 2 mm. The experiment consisted of the following six treatment groups, with 10 animals in each group for a total of 60 rabbits (Table 2). Rabbits in Groups 3, 4, 5 and 6 were treated with intra-articular rhFGF-18 in either one cycle of three weekly injections of 100 μg of rhFGF-18 (Group 3 and 5) or one cycle of three monthly injections 100 μg of rhFGF-18 (Group 4 and 6). All animals were euthanized and necropsied 6 months after surgery. [table]

[3] = Group 4: no microfracture, 100 μg monthly x3
[4] = Group 6: microfracture, 100 μg monthly x3
[5] = microfracture, monthly for three months, non-significant
[6] = microfracture, monthly for three months, significant
[7] = microfracture, weekly for three weeks, significant
[8] = no microfracture, monthly for three months, non-significant
[9] = no microfracture, monthly for three months, significant

B1: trFGF-18: recombinant truncated form of human FGF-18 (170 amino acids, SEQ ID NO: 2), produced in E. coli (protein)
chain: MEENVDFRIHVENQTRARDDVSRKQLRLYQLYSRTSGKHIQVLGRRISARGEDGDKYAQLLVETDTFGSQVRIKGKETEFYLCMNRKGKLVGKPDGTSKECVFIEKVLENNYTALMSAKYSGWYVGFTKKGRPRKGPKTRENQQDVHFMKRYPKGQPELQKPFKYTTVTK
modifications: Recombinant truncated FGF-18(trFGF-18)
extent of injury over the tibial surface (histopathology), particularly collagen damage ([1]; 10 μg IA, all regimens): generally increased | severity of injury over the tibial surface (histopathology) ([1]; 10 μg IA, all regimens): reducing its severity | structural benefit ([1]; bi-weekly injection scheme, 10 μg IA): provides interesting structural benefits | structural benefit (joint scores, tibial cartilage degeneration width; FIGS. 3, 4, 5) ([1]; monthly injection scheme, 10 μg IA): highest | side effects of treatment (histopathology) ([1]; rat, in vivo): cartilage hypertrophy, synovitis, and synovial fibrosis | swelling in the treated knee ([1]; rat, in vivo): significantly increased | overall morphology ([1]; once every 2 weeks (days 21, 35, 49)): good overall morphology | overall morphology ([1]; once monthly (days 21, 49, 77)): best overall morphology | ICRS cartilage score [2, 3]: 2.1+/−0.3 | animals with intercondylar groove filled with cartilage (nearly normal to slightly roughened or granular) [2, 3]: 6/9 | ICRS gross cartilage score ([2]; Group 5: microfracture, 100 μg weekly x3): 1.9+/−0.3 | animals with groove 50% filled up to nearly completely filled with granular to coarsely granular cartilage [2, 4]: 7/10 | animals with intercondylar groove filled with cartilage [2, 4]: 3/10 | ICRS gross cartilage score [2, 4]: 2.4+/−0.2 | decrease in total width of the groove lesion [2, 5]: 19% | decrease in width of the lesion with no viable cartilage [2, 5]: 69% | increase in central MFC thickness [2, 6]: 106% | increase in summed scores [2, 6]: 76% | increases (toward normal) in all scored parameters and defect fill percent [2, 6]: 61-97% | increase in total width of the groove lesion ([2]; microfracture, weekly for three weeks): 5% | decrease in width of the lesion with no viable cartilage ([2]; microfracture, weekly for three weeks, non-significant): 59% | increase in central MFC thickness [2, 7]: 112% | increase in summed scores [2, 7]: 53% | increases (toward normal) in all scored parameters and defect fill percent [2, 7]: 44-69% | degeneration in sections ([2]; no microfracture, monthly for three months, all sections, generally focal): minimal to severe | increase in other scores [2, 8]: 20-23% | increase in total width of the groove lesion [2, 8]: 36% | decrease in width of the lesion with no viable cartilage [2, 9]: 94% | increase in central MFC thickness [2, 9]: 120% | increase in defect fill percentage [2, 9]: 48% | increase in the defect fill score [2, 9]: 49% | sections with cartilage hypertrophy ([2]; rabbit, in vivo): All sections
